The values below come from US20250197490A1 (HBM ALPHA THERAPEUTICS, published 2025).

This assay addresses T1, corticotropin-releasing hormone (CRH) peptide (human and mouse, UniProt P01143 145-185 (rat entry), not fully specified).
T1 peptide: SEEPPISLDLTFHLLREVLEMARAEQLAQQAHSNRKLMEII
Description: cell-based or functional assay.

B1: PR302341-19 (antibody, human IgG1, kappa, V domains shown)
VH: QVQLVQSGAEVKKPGASVKVSCKASGYTFTDYFMKWVRQAPGQGLEWMGVINPNNGDIFYNQKFKGRVTMTRDTSTSTVYMELSSLRSEDTAVYYCARGTDRALFAYWGQGTLVTVSS
VL: DVVMTQSPLSLPVTLGQPASISCRSGQSIVHSDGNTYLEWYQQRPGQSPRLLIYKVSNRFSGVPDRFSGSGSGTDFTLKISRVEAEDLGVYYCFQGSHIPWTFGGGTKVEIKR
For B1, the “hCRHR1-Luc 0.5 nM CRH IC50” value was 0.121 nM.

B2: PR302341-24 (antibody, human IgG1, kappa, V domains shown)
VH: QVQLVQSGAEVKKPGASVKVSCKASGYTFTDYFMKWVRQAPGQRLEWMGVINPNNGDIFYNQKFKGRVTITVDKSASTAYMELSSLRSEDTAVYYCARGTDRALFAYWGQGTLVTVSS
VL: DVVMTQTPLSSPVTLGQPASISCRSGQSIVHSDGNTYLEWYQQRPGQPPRLLIYKVSNRFSGVPDRFSGSGAGTDFTLKISRVEAEDLGVYYCFQGSHIPWTFGGGTKVEIKR
B2: the “hCRHR1-Luc 0.5 nM CRH IC50” value turned out to be 0.192 nM.

B3: PR302341-7 (antibody, human IgG1, kappa, V domains shown)
VH: QVQLVQSGAEVKKPGASVKVSCKASGYTFTDYFMKWVRQAPGQGLEWMGVINPNNGDIFYNQKFKGRVTMTVDKSTSTAYMELSSLRSEDTAVYYCARGTDRALFAYWGQGTLVTVSS
VL: DVVMTQSPLSLPVTLGQPASISCRSGQSIVHSDGNTYLEWFQQRPGQSPRRLIYKVSNRFSGVPDRFSGSGSGTDFTLKISRVEAEDVGVYYCFQGSHIPWTFGGGTKVEIKR
Consider B3, for which the “hCRHR1-Luc 0.5 nM CRH IC50” value was determined as 0.23 nM.

B4: PR302341-20 (antibody, human IgG1, kappa, V domains shown)
VH: QVQLVQSGAEVKKPGASVKVSCKASGYTFTDYFMKWVRQAPGQRLEWMGVINPNNGDIFYNQKFKGRVTITRDTSASTAYMELSSLRSEDTAVYYCARGTDRALFAYWGQGTLVTVSS
VL: DVVMTQSPLSLPVTLGQPASISCRSGQSIVHSDGNTYLEWYQQRPGQSPRLLIYKVSNRFSGVPDRFSGSGSGTDFTLKISRVEAEDLGVYYCFQGSHIPWTFGGGTKVEIKR
As for B4, the “hCRHR1-Luc 0.5 nM CRH IC50” value amounted to 0.162 nM.

B5: PR302341-15 (antibody, human IgG1, kappa, V domains shown)
VH: QVQLVQSGAEVKKPGASVKVSCKASGYTFTDYFMKWVRQAPGQRLEWMGVINPNNGDIFYNQKFKGRVTITRDTSASTAYMELSSLRSEDTAVYYCARGTDRALFAYWGQGTLVTVSS
VL: DVLMTQTPLSLPVSLGDQASISCRSGQSIVHSDGNTYLEWYLQRPGQSPRLLIYKVSNRFSGVPDRFSGSGSGTDFTLKISRVGAEDLGIYYCFQGSHIPWTFGGGTKLEVKR
In the case of B5, the “hCRHR1-Luc 0.5 nM CRH IC50” value worked out at 0.124 nM.

B6: PR302341-11 (antibody, human IgG1, kappa, V domains shown)
VH: QVQLVQSGAEVKKPGASVKVSCKASGYTFTDYFMKWVRQAPGQGLEWMGVINPNNGDIFYNQKFKGRVTMTVDKSTSTAYMELSSLRSEDTAVYYCARGTDRALFAYWGQGTLVTVSS
VL: DIVMTQTPLSLSVTPGQPASISCRSGQSIVHSDGNTYLEWYLQKPGQSPQLLIYKVSNRFSGVPDRFSGSGSGTDFTLKISRVEAEDVGVYYCFQGSHIPWTFGGGTKVEIKR
In the case of B6, the “hCRHR1-Luc 0.5 nM CRH IC50” value amounted to 0.467 nM.

B7: PR302341-17 (antibody, human IgG1, kappa, V domains shown)
VH: QVQLVQSGAEVKKPGASVKVSCKASGYTFTDYFMKWVRQAPGQGLEWMGVINPNNGDIFYNQKFKGRVTMTRDTSISTAYMELSRLRSDDTAVYYCARGTDRALFAYWGQGTLVTVSS
VL: DVLMTQTPLSLPVSLGDQASISCRSGQSIVHSDGNTYLEWYLQRPGQSPRLLIYKVSNRFSGVPDRFSGSGSGTDFTLKISRVGAEDLGIYYCFQGSHIPWTFGGGTKLEVKR
B7: the “hCRHR1-Luc 0.5 nM CRH IC50” value amounted to 0.104 nM.

B8: PR302341-12 (antibody, human IgG1, kappa, V domains shown)
VH: QVQLVQSGAEVKKPGASVKVSCKASGYTFTDYFMKWVRQAPGQGLEWMGVINPNNGDIFYNQKFKGRVTMTVDKSTSTAYMELSSLRSEDTAVYYCARGTDRALFAYWGQGTLVTVSS
VL: DVVMTQTPLSLSVTPGQPASISCRSGQSIVHSDGNTYLEWYLQKPGQSPQLLIYKVSNRFSGVPDRFSGSGSGTDFTLKISRVEAEDLGVYYCFQGSHIPWTFGGGTKVEIKR
For B8, the “hCRHR1-Luc 0.5 nM CRH IC50” value is 0.25 nM.

B9: PR302341-21 (antibody, human IgG1, kappa, V domains shown)
VH: QVQLVQSGAEVKKPGASVKVSCKASGYTFTDYFMKWVRQAPGQRLEWMGVINPNNGDIFYNQKFKGRVTITVDKSASTAYMELSSLRSEDTAVYYCARGTDRALFAYWGQGTLVTVSS
VL: DVVMTQSPLSLPVTLGQPASISCRSGQSIVHSDGNTYLEWYQQRPGQSPRLLIYKVSNRFSGVPDRFSGSGSGTDFTLKISRVEAEDLGVYYCFQGSHIPWTFGGGTKVEIKR
For B9, the “hCRHR1-Luc 0.5 nM CRH IC50” value came to 0.177 nM.

B10: PR302341-16 (antibody, human IgG1, kappa, V domains shown)
VH: QVQLVQSGAEVKKPGASVKVSCKASGYTFTDYFMKWVRQAPGQRLEWMGVINPNNGDIFYNQKFKGRVTITVDKSASTAYMELSSLRSEDTAVYYCARGTDRALFAYWGQGTLVTVSS
VL: DVLMTQTPLSLPVSLGDQASISCRSGQSIVHSDGNTYLEWYLQRPGQSPRLLIYKVSNRFSGVPDRFSGSGSGTDFTLKISRVGAEDLGIYYCFQGSHIPWTFGGGTKLEVKR
B10: the “hCRHR1-Luc 0.5 nM CRH IC50” value came out at 0.225 nM.

B11: PR302341-10 (antibody, human IgG1, kappa, V domains shown)
VH: QVQLVQSGAEVKKPGASVKVSCKASGYTFTDYFMKWVRQAPGQGLEWMGVINPNNGDIFYNQKFKGRVTMTVDKSTSTAYMELSSLRSEDTAVYYCARGTDRALFAYWGQGTLVTVSS
VL: DVVMTQTPLSSPVTLGQPASISCRSGQSIVHSDGNTYLEWYQQRPGQPPRLLIYKVSNRFSGVPDRFSGSGAGTDFTLKISRVEAEDLGVYYCFQGSHIPWTFGGGTKVEIKR
Turning to B11, the “hCRHR1-Luc 0.5 nM CRH IC50” value is 0.11 nM.

B12: PR302341-14 (antibody, human IgG1, kappa, V domains shown)
VH: QVQLVQSGAEVKKPGASVKVSCKASGYTFTDYFMKWVRQAPGQGLEWMGVINPNNGDIFYNQKFKGRVTMTVDKSTSTAYMELSSLRSEDTAVYYCARGTDRALFAYWGQGTLVTVSS
VL: DVLMTQTPLSLPVSLGDQASISCRSGQSIVHSDGNTYLEWYLQRPGQSPRLLIYKVSNRFSGVPDRFSGSGSGTDFTLKISRVGAEDLGIYYCFQGSHIPWTFGGGTKLEVKR
For B12, the “hCRHR1-Luc 0.5 nM CRH IC50” value was 0.075 nM.

B13: PR302341-9 (antibody, human IgG1, kappa, V domains shown)
VH: QVQLVQSGAEVKKPGASVKVSCKASGYTFTDYFMKWVRQAPGQGLEWMGVINPNNGDIFYNQKFKGRVTMTVDKSTSTAYMELSSLRSEDTAVYYCARGTDRALFAYWGQGTLVTVSS
VL: DIVMTQTPLSSPVTLGQPASISCRSGQSIVHSDGNTYLEWLQQRPGQPPRLLIYKVSNRFSGVPDRFSGSGAGTDFTLKISRVEAEDVGVYYCFQGSHIPWTFGGGTKVEIKR
On to B13, for which the “hCRHR1-Luc 0.5 nM CRH IC50” value stood at 0.234 nM.

B14: PR302341-25 (antibody, human IgG1, kappa, V domains shown)
VH: QVQLVQSGAEVKKPGASVKVSCKASGYTFTDYFMKWVRQAPGQRLEWMGVINPNNGDIFYNQKFKGRVTITVDKSASTAYMELSSLRSEDTAVYYCARGTDRALFAYWGQGTLVTVSS
VL: DVVMTQTPLSLSVTPGQPASISCRSGQSIVHSDGNTYLEWYLQKPGQSPQLLIYKVSNRFSGVPDRFSGSGSGTDFTLKISRVEAEDLGVYYCFQGSHIPWTFGGGTKVEIKR
As to B14, the “hCRHR1-Luc 0.5 nM CRH IC50” value is 0.711 nM.

B15: PR302341-8 (antibody, human IgG1, kappa, V domains shown)
VH: QVQLVQSGAEVKKPGASVKVSCKASGYTFTDYFMKWVRQAPGQGLEWMGVINPNNGDIFYNQKFKGRVTMTVDKSTSTAYMELSSLRSEDTAVYYCARGTDRALFAYWGQGTLVTVSS
VL: DVVMTQSPLSLPVTLGQPASISCRSGQSIVHSDGNTYLEWYQQRPGQSPRLLIYKVSNRFSGVPDRFSGSGSGTDFTLKISRVEAEDLGVYYCFQGSHIPWTFGGGTKVEIKR
In the case of B15, the “hCRHR1-Luc 0.5 nM CRH IC50” value was 0.165 nM.
